Results from publication PMC4175327, “Distinguishing Closely Related Amyloid Precursors Using an RNA Aptamer*”.

Tests used:
[1] = biological target: T1, human beta2-microglobulin (hβ2m), monomer (human, UniProt P61769 21-119); test: intrinsic Trp fluorescence quenching; EC50; Hill slope 0.99 ± 0.06; 1 uM protein; 50 mM MES, 120 mM NaCl, pH 6.2; fluorescence and NMR at 25 °C (NMR plus 0.02% azide, 0.1 mM EDTA, 10% D2O); SPR temperature not stated; details: tags: biotin (N terminus, Lys-7 and/or Lys-92), immobilized, for SPR; hairpin with bulges, U tetraloop
[2] = biological target: T1, human beta2-microglobulin (hβ2m), …; test: intrinsic Trp fluorescence quenching; 1 uM protein; 50 mM MES, 120 mM NaCl, pH 6.2; fluorescence and NMR at 25 °C (NMR plus 0.02% azide, 0.1 mM EDTA, 10% D2O); SPR temperature not stated; details: tags: biotin (N terminus, Lys-7 and/or Lys-92), immobilized, for SPR; hairpin with bulges, U tetraloop

T1 sequence (P61769 21-119): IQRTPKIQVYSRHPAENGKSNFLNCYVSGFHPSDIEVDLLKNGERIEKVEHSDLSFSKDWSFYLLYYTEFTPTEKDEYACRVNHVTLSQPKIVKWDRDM

Binder | apparent K (half saturation) [1] [nM] | binding result [2]
GGGAAUUCUGAGCUACUCCCUUUUGGGCCCGGCUAUGAUUCCCG (XNA, 2'-fluoro C and U (3'-terminal G is ribo)) [2'F B6min] | 223 ± 10 | 
GGGAAUUCUGAGCUACUCCCUUUUGGGCCCGGCUAUGAUUCCCG (structured_RNA, none (2'OH)) [2'OH B6min] |  | no binding
